Source: IntAct's records for PubMed 35512704

B1: Mothers against decapentaplegic homolog 4 (Homo sapiens), Q13485 (parent)
chain: MDNMSITNTPTSNDACLSIVHSLMCHRQGGESETFAKRAIESLVKKLKEKKDELDSLITAITTNGAHPSKCVTIQRTLDGRLQVAGRKGFPHVIYARLWRWPDLHKNELKHVKYCQYAFDLKCDSVCVNPYHYERVVSPGIDLSGLTLQSNAPSSMMVKDEYVHDFEGQPSLSTEGHSIQTIQHPPSNRASTETYSTPALLAPSESNATSTANFPNIPVASTSQPASILGGSHSEGLLQIASGPQPGQQQNGFTGQPATYHHNSTTTWTGSRTAPYTPNLPHHQNGHLQHHPPMPPHPGHYWPVHNELAFQPPISNHPAPEYWCSIAYFEMDVQVGETFKVPSSCPIVTVDGYVDPSGGDRFCLGQLSNVHRTEAIERARLHIGKGVQLECKGEGDVWVRCLSDHAVFVQSYYLDREAGRAPGDAVHKIYPSAYIKVFDLRQCHRQMQQQAATAQAAAAAQAAAVAGNIPGPGSVGGIAPAISLSAAAGIGVDDLRRLCILRMSFVKGWGPDYPRQSIKETPCWIEIHLHRALQLLDEVLHTMPIADPQPLD
partner: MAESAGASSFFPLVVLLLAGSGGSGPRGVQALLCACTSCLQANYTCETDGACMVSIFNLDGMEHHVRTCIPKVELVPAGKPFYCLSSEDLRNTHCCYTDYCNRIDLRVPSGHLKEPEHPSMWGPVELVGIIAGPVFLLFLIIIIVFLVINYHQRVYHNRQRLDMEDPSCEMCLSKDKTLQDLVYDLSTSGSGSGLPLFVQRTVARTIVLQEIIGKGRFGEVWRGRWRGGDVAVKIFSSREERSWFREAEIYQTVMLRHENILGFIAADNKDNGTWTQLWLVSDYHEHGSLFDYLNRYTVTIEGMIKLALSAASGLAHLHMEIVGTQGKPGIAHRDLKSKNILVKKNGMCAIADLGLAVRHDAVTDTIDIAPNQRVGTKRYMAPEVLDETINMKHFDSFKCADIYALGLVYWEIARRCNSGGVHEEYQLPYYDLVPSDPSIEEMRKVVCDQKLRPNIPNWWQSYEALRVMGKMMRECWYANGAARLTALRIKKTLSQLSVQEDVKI
B2: Mothers against decapentaplegic homolog 4 (Homo sapiens), Q13485 (parent)
chain: B1 chain
partner: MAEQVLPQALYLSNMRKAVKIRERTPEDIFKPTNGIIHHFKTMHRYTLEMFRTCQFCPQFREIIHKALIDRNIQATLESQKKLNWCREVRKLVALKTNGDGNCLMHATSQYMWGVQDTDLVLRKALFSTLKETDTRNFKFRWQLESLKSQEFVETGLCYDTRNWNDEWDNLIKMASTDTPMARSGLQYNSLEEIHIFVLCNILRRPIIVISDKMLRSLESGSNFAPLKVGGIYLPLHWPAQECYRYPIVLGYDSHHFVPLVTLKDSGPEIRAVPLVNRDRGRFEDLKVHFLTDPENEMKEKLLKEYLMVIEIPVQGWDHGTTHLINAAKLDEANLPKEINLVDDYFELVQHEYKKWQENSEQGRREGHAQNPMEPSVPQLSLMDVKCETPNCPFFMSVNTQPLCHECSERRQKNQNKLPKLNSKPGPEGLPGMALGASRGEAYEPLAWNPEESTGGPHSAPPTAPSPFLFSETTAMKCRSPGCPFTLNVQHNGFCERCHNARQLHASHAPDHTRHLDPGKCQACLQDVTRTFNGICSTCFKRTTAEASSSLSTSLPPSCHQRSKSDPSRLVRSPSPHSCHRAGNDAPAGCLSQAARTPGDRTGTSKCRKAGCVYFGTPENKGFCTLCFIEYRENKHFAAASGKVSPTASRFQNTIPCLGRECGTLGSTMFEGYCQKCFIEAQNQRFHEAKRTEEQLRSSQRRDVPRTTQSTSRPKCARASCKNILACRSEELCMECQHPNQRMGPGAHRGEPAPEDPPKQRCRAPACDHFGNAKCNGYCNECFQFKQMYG
B3: Mothers against decapentaplegic homolog 4 (Homo sapiens), Q13485 (parent)
chain: B1 chain
partner: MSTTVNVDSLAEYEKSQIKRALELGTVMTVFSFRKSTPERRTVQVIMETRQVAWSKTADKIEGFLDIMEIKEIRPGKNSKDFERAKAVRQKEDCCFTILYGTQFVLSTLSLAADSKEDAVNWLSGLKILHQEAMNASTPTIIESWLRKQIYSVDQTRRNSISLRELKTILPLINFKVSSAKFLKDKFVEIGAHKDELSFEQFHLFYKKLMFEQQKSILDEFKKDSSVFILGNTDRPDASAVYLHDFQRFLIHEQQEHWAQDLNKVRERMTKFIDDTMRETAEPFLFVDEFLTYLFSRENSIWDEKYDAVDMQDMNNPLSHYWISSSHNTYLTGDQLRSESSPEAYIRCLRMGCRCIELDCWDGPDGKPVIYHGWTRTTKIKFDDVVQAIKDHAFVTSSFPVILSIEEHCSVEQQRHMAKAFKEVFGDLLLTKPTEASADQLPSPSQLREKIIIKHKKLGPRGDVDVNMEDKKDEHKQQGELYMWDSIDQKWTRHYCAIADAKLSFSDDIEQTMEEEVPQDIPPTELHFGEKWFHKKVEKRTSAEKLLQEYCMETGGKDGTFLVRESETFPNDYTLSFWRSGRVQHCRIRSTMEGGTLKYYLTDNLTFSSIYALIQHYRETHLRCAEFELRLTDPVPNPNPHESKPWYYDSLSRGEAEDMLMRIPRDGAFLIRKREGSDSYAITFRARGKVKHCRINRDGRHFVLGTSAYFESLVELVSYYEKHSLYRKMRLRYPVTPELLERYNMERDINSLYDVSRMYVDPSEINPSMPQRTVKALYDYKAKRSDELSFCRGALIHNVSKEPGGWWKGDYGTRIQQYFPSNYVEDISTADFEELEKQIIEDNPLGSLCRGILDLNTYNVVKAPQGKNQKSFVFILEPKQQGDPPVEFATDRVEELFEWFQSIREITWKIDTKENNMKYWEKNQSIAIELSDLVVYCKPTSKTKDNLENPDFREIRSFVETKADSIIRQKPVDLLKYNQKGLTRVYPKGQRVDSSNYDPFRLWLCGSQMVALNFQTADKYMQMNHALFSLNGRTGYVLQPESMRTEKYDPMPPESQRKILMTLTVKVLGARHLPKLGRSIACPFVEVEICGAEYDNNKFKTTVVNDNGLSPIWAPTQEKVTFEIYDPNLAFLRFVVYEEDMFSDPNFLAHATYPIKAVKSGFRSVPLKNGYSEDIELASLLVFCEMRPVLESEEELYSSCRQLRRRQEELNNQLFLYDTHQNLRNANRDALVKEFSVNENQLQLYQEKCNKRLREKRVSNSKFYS
B4: Mothers against decapentaplegic homolog 4 (Homo sapiens), Q13485 (parent)
chain: B1 chain
partner: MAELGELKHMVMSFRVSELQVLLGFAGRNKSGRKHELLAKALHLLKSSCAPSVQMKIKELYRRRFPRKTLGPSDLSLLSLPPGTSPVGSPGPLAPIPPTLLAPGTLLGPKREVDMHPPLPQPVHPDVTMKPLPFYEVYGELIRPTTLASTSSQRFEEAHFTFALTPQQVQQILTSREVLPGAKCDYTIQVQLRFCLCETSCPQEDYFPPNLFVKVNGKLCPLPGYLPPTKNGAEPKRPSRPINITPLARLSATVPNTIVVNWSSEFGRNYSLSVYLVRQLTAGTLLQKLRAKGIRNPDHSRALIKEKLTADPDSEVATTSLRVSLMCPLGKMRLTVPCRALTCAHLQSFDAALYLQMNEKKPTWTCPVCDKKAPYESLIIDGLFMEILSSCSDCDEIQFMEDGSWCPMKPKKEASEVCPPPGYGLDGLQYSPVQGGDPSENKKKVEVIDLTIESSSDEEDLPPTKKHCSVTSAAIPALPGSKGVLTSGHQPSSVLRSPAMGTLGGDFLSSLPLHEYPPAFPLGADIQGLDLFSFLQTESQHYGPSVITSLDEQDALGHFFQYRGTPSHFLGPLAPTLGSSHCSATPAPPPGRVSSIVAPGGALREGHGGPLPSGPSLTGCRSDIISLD
B5: Mothers against decapentaplegic homolog 4 (Homo sapiens), Q13485 (parent)
chain: B1 chain
partner: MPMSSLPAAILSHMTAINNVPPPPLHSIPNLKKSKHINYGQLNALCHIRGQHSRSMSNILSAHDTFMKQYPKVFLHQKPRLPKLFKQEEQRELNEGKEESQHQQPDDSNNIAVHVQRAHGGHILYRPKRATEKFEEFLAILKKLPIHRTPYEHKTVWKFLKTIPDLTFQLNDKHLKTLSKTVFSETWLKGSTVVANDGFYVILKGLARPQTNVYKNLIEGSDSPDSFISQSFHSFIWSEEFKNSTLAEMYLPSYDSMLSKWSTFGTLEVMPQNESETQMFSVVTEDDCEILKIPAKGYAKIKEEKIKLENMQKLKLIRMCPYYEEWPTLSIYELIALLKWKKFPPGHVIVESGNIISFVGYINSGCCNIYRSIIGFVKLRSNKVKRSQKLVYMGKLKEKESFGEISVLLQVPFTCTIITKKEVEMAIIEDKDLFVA
B6: Mothers against decapentaplegic homolog 4 (Homo sapiens), Q13485 (parent)
chain: B1 chain
partner: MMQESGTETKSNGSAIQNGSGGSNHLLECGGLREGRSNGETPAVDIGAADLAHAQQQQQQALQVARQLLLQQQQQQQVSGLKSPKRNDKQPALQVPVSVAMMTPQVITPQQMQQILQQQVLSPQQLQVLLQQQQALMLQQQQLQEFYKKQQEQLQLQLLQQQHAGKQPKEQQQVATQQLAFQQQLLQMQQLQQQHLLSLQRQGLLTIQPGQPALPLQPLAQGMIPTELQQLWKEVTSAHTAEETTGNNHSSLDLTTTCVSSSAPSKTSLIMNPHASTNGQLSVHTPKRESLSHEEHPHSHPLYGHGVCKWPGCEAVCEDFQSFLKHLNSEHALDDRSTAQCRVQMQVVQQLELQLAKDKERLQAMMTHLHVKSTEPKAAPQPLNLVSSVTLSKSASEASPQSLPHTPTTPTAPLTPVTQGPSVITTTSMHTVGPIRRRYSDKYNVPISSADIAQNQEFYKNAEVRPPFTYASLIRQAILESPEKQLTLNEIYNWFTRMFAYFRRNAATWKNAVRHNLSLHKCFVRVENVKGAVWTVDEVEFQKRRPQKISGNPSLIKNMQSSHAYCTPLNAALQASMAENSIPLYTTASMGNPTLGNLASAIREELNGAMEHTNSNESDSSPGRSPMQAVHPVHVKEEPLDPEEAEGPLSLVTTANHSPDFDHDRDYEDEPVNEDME

Variants of: B1
Conditions: with acv1b_human ACVR1B

effect of a mutation on the interaction	Variant
with no effect	R361H

Variants of: B1
Conditions: with acv1b_human ACVR1B
Remark: another data set of the same source

effect of a mutation on the interaction	Variant
with no effect	R361C

Variants of: B2
Conditions: with tnap3_human TNFAIP3, P21580

effect of a mutation on the interaction	Variant
with no effect	G386D

Variants of: B3
Conditions: with plcg2_human PLCG2, P16885

effect of a mutation on the interaction	Variant
with no effect	R361C

Variants of: B4
Conditions: with pias3_human PIAS3, Q9Y6X2

effect of a mutation on the interaction	Variant
with no effect	G386D

Variants of: B4
Conditions: with pias3_human PIAS3, Q9Y6X2
Remark: another data set of the same source

effect of a mutation on the interaction	Variant
increasing interaction strength	G386D

Variants of: B5
Conditions: with cnbd1_human CNBD1, Q8NA66

effect of a mutation on the interaction	Variant
with no effect	R361H

Variants of: B6
Conditions: with foxp1_human FOXP1, Q9H334

effect of a mutation on the interaction	Variant
with no effect	G386D
